Data set [1] concerns the target T1, Pf-SSB-MDCC (Plasmodium falciparum, UniProt Q8I415 77-284). The data set can be described thus: ITC; 200 mM NaCl; stoichiometric, 2 (dT)35 per tetramer; dHobs -71.8±0.2 kcal/mol; Titration and stopped-flow: 20 mM Tris-Cl pH 8, 0.1 mM EDTA, 100 mM NaCl, 1 mM TCEP, 25 C; ITC same with 200 mM NaCl; Rad51 filaments: 25 mM Tris-Cl pH 7.7, 1 mM TCEP, 5% glycerol, 10 mM MgCl2, 50 mM NaCl, 3 mM ATP, ATP regeneration. The following applies: protein: recombinant; tags: MDCC on Cys93; chain copies: 4; single strand; 2 copies per tetramer. A general note: Isothermal titration calorimetry measures the heat released or taken up as one component is titrated into another.

For the next data set, the target named is Pf-SSB (Plasmodium falciparum, UniProt Q8I415 77-284). The data set can be described thus: ITC; 200 mM NaCl; stoichiometric, 2 (dT)35 per tetramer; dHobs -73.1±0.2 kcal/mol; Titration and stopped-flow: 20 mM Tris-Cl pH 8, 0.1 mM EDTA, 100 mM NaCl, 1 mM TCEP, 25 C; ITC same with 200 mM NaCl; Rad51 filaments: 25 mM Tris-Cl pH 7.7, 1 mM TCEP, 5% glycerol, 10 mM MgCl2, 50 mM NaCl, 3 mM ATP, ATP regeneration. The following applies: protein: recombinant; chain copies: 4; single strand; 2 copies per tetramer.

Data set [2] addresses T1, Pf-SSB-MDCC. The data set can be described thus: fluorescence titration; 100 mM NaCl; stoichiometric, 1 tetramer per (dT)70; ~4-fold fluorescence increase; Titration and stopped-flow: 20 mM Tris-Cl pH 8, 0.1 mM EDTA, 100 mM NaCl, 1 mM TCEP, 25 C; ITC same with 200 mM NaCl; Rad51 filaments: 25 mM Tris-Cl pH 7.7, 1 mM TCEP, 5% glycerol, 10 mM MgCl2, 50 mM NaCl, 3 mM ATP, ATP regeneration. The following applies: protein: recombinant; tags: MDCC on Cys93; chain copies: 4; single strand.

Take TTTTTTTTTTTTTTTTTTTTTTTTTTTTTTTTTTT (ssDNA) [(dT)35]: the binding result in the data set with Pf-SSB-MDCC [1] and with Pf-SSB was “binds” throughout.

B1: (dT)70 (ssDNA)
DNA: TTTTTTTTTTTTTTTTTTTTTTTTTTTTTTTTTTTTTTTTTTTTTTTTTTTTTTTTTTTTTTTTTTTTTT
For the molecule B1, in the data set with Pf-SSB-MDCC [2], the binding result is “binds”.

The values are drawn from publication PMC4945038, “Rad51 Nucleoprotein Filament Disassembly Captured Using Fluorescent Plasmodium falciparum SSB as a Reporter for Single-Stranded DNA”.
